Patent US20140112929A1

Molecular target: TNFR1 on human umbilical vein endothelial cells (HUVEC) (human) (UniProt P19438)
Sequence of UniProt P19438 (P19438 30-455): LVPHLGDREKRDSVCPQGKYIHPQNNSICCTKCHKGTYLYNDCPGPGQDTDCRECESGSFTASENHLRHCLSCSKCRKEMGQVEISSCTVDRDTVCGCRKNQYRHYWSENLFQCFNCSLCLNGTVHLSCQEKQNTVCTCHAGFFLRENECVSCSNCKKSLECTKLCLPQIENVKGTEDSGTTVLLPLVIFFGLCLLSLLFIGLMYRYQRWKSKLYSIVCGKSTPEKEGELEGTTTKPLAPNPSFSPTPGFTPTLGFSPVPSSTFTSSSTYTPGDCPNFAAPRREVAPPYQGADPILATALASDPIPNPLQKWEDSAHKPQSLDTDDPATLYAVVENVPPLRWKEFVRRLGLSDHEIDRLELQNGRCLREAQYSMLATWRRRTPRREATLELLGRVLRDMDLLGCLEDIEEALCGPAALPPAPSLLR

Sequence of DOM1h-131-206 (VH): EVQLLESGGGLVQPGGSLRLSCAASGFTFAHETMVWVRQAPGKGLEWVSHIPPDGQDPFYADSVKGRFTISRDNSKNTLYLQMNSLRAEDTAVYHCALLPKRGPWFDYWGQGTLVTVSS

Substance: DOM1h-131-206
- IC50 (read off the curve) [b]: 500 pM
